T1: human CLDN6 (human, UniProt P56747 1-220)
T1 construct: whole, on cells; four-transmembrane protein; also called claudin-6; HEK293T-CLDN6
T1 sequence (looked up): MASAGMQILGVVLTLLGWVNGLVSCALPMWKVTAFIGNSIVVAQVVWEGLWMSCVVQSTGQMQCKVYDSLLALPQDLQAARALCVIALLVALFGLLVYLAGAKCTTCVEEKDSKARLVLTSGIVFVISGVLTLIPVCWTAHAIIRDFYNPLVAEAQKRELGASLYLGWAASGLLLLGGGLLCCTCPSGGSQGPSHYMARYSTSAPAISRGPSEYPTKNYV


Experiments:
human CLDN6 [1] = biological target: T1, human CLDN6; assay: FACS on CHO-K1-CLDN6 cells, against PiH1004 (FIG. 40)
human CLDN6 [2] = biological target: T1, human CLDN6; assay: FACS on HepG2 tumour cells; target on the cells taken as CLDN6
Experimental: (§1) 50 μL of an antibody to be tested was added to a 96-well plate, then 1×10⁵ cells were added to each well, and incubation was conducted at 4° C. for 1 h. Cells were washed three times with PBS. […] Finally, cells were washed three times with PBS, and signals were read using FACS. A binding capacity of the antibody to each tumor cell was analyzed based on detection data.

human CLDN6 [3] = biological target: T1, human CLDN6; assay: FACS on PA-1 tumour cells; target on the cells taken as CLDN6
Experimental: as §1

human CLDN6 [4] = biological target: T1, human CLDN6; assay: FACS on HEK293T-CLDN6 cells
Experimental: To detect a binding capacity of a chimeric or humanized antibody to CLDN6, a CLDN6-expressing cell line HEK293T-CLDN6 and a CLDN6-negative control cell line HEK293T were washed three times with PBS. 1×10⁵ test cells and 50 μL of an antibody solution to be tested were added to a 96-well plate, and incubated at 4° C. for 1 h. The cells were then washed three times with PBS. […] Finally, cells were washed three times with PBS, and signals were read using FACS.
An EC50 value (a concentration of an antibody that binds to half of binding sites at equilibrium) is calculated through nonlinear regression.

human CLDN6 [5] = biological target: T1, human CLDN6; assay: FACS on HepG2 tumour cells; target on the cells taken as CLDN6; remark: listed apart in the source
Experimental: as §1

Row | Binder | binding result (human CLDN6 [1]) | EC50 (human CLDN6 [3]) [µg/mL] | EC50 (human CLDN6 [4]) [µg/mL] | further results
1 | PiH2011 (antibody, human IgG1, kappa, V domains shown, humanized from 54B5A7; IgG1; also called 54-VH7 + VL5) VH: QVQLVQSGAEVKKPGASVKVSCKASGYTFTDYNMHWVRQATGQGLEWIGYINPNNGATNYNQKFKGRATLTVNKSISTAYMELRSLRSEDTAVYYCARWDGYVYYYGMDYWGQGTLVTVSS VL: DIQMTQSPSSLSASVGDRVTITCKASDHINNWLAWYQQKPGKVPRLLISGATSLETGVPSRFSGSGSGKDYTLTISSLQPEDVATYYCQQYWNTPYTFGGGTKLEIKR | – | – | – | EC50 (human CLDN6 [2]): 4.7 µg/mL
2 | PiH2010 (antibody, human IgG1, kappa, V domains shown, humanized from 54B5A7; IgG1; also called 54-VH6 + VL5) VH: QVQLVQSGAEVKKPGASVKVSCKASGYTFTDYNMHWVRQATGQGLEWIGYINPNNGATNYNQKFKGRATMTRNKSISTAYMELRSLRSEDTAVYNCARWDGYVYYYGMDYWGQGTLVTVSS VL: DIQMTQSPSSLSASVGDRVTITCKASDHINNWLAWYQQKPGKVPRLLISGATSLETGVPSRFSGSGSGKDYTLTISSLQPEDVATYYCQQYWNTPYTFGGGTKLEIKR | – | – | – | EC50 (human CLDN6 [2]): 1.4 µg/mL
3 | PiH2009 (antibody, human IgG1, kappa, V domains shown, humanized from 54B5A7; IgG1; also called 54-VH5 + VL5) VH: QVQLVQSGAEVKKPGASVKVSCKASGYTFTDYNMHWVRQATGQGLEWIGYINPNNGATNYNQKFKGRATMTRNKSISTAYMELRSLRSEDTAVYYCARWDGYVYYYGMDYWGQGTLVTVSS VL: DIQMTQSPSSLSASVGDRVTITCKASDHINNWLAWYQQKPGKVPRLLISGATSLETGVPSRFSGSGSGKDYTLTISSLQPEDVATYYCQQYWNTPYTFGGGTKLEIKR | – | – | – | EC50 (human CLDN6 [2]): 1.11 µg/mL
4 | PiH2012 (antibody, human IgG1, kappa, V domains shown, humanized from 54B5A7; IgG1; also called 54-VH8 + VL5) VH: QVQLVQSGAEVKKPGASVKVSCKASGYTFTDYNMHWVRKATGQSLEWIGYINPNNGATNYNQKFKGRATMTRNKSISTAYMELRSLRSEDTAVYNCARWDGYVYYYGMDYWGQGTLVTVSS VL: DIQMTQSPSSLSASVGDRVTITCKASDHINNWLAWYQQKPGKVPRLLISGATSLETGVPSRFSGSGSGKDYTLTISSLQPEDVATYYCQQYWNTPYTFGGGTKLEIKR | – | – | – | EC50 (human CLDN6 [2]): 0.444 µg/mL
5 | PiH1003 (antibody, human IgG1, kappa, V domains shown, humanized from 51C10H4; IgG1; also called 51-VH3 + VL3) VH: QVQLVQSGAEVKKPGASVKVSCKASGYTFTDYNMHWVRQAPGQGLEWIGYVNPNNGATSYNQKFKGRATMTVDTSTSTVYMELSSLRSEDTAVYNCARWDGYVYYYGLDYWGQGTLVTVSS VL: DIQMTQSPSSLSASVGDRVTITCKASDHINNWLAWYQQKPGKVPKLLISGATSLETGVPSRFSGSGSGTDYTLTISSLQPEDVATYYCQQYWSTPYTFGGGTKLEIKR | – | 0.883 | 0.455 | –
6 | PiH1008 (antibody, human IgG1, kappa, V domains shown, humanized from 51C10H4; IgG1; also called 51-VH4 + VL4) VH: QVQLVQSGAEVKKPGASVKVSCKASGYTFTDYNMHWVRQAPGQSLEWIGYVNPNNGATSYNQKFKGRATMTVDKSTSTVYMELSSLRSEDTAVYNCARWDGYVYYYGLDYWGQGTLVTVSS VL: DIQMTQSPSSLSASVGGRVTITCKASDHINNWLAWYQQKPGKVPRLLISGATSLETGVPSRFSGSGSGTDYTLTISSLQPEDVATYYCQQYWSTPYTFGGGTKLEIKR | – | 0.455 | 0.447 | EC50 (human CLDN6 [5]): 0.886 µg/mL
7 | PiH1005 (antibody, human IgG1, kappa, V domains shown, humanized from 51C10H4; IgG1; also called 51-VH1 + VL4) VH: QVQLVQSGAEVKKPGASVKVSCKASGYTFTDYNMHWVRQAPGQGLEWIGYVNPNNGATSYNQKFKGRATMTRDTSTSTVYMELSSLRSEDTAVYYCARWDGYVYYYGLDYWGQGTLVTVSS VL: DIQMTQSPSSLSASVGGRVTITCKASDHINNWLAWYQQKPGKVPRLLISGATSLETGVPSRFSGSGSGTDYTLTISSLQPEDVATYYCQQYWSTPYTFGGGTKLEIKR | – | 0.505 | 0.372 | EC50 (human CLDN6 [5]): 2.35 µg/mL
8 | PiH1004-VH-VL-Mutation3 (antibody, human IgG1, kappa, V domains shown, improved antibody from PiH1004) VH: QVQLVQSGAEVKKPGASVKVSCKASGYTFTDYNMHWVRQAPGQSLEWIGYVNPNNGATSYNQKFKGRATMTVDKSTSTVYMELSSLRSEDTAVYNCARWDGYVYYYGLDYWGQGTLVTVSS VL: DIQMTQSPSSLSASVGDRVTITCKASDHINQWLAWYQQKPGKVPKLLISGATSLETGVPSRFSGSGSGTDYTLTISSLQPEDVATYYCQQYWSTPYTFGGGTKLEIKR | binds | – | – | –
9 | PiH1004-VH-Mutation11-VL (antibody, human IgG1, kappa, V domains shown, improved antibody from PiH1004) VH: QVQLVQSGAEVKKPGASVKVSCKASGYTFTDYNMHWVRQAPGQSLEWIGYVNPNNGATSYNQKFKGRATMTVDKSTSTVYMELSSLRSEDTAVYNCARWDGYVYYYGLDFWGQGTLVTVSS VL: DIQMTQSPSSLSASVGDRVTITCKASDHINNWLAWYQQKPGKVPKLLISGATSLETGVPSRFSGSGSGTDYTLTISSLQPEDVATYYCQQYWSTPYTFGGGTKLEIKR | binds | – | – | –

Further lines, with some results ahead:

Row | binding result (human CLDN6 [1]) | EC50 (human CLDN6 [3]) [µg/mL] | EC50 (human CLDN6 [4]) [µg/mL] | Binder | further results
10 | binds | – | – | PiH1004-VH-Mutation8-VL (antibody, human IgG1, kappa, V domains shown, improved antibody from PiH1004) VH: QVQLVQSGAEVKKPGASVKVSCKASGYTFTDYNMHWVRQAPGQSLEWIGYLNPNNGATSYNQKFKGRATMTVDKSTSTVYMELSSLRSEDTAVYNCARWDGYVYYYGLDYWGQGTLVTVSS VL: DIQMTQSPSSLSASVGDRVTITCKASDHINNWLAWYQQKPGKVPKLLISGATSLETGVPSRFSGSGSGTDYTLTISSLQPEDVATYYCQQYWSTPYTFGGGTKLEIKR | –
11 | binds | – | – | PiH1004-VH-VL-Mutation6 (antibody, human IgG1, kappa, V domains shown, improved antibody from PiH1004) VH: QVQLVQSGAEVKKPGASVKVSCKASGYTFTDYNMHWVRQAPGQSLEWIGYVNPNNGATSYNQKFKGRATMTVDKSTSTVYMELSSLRSEDTAVYNCARWDGYVYYYGLDYWGQGTLVTVSS VL: DIQMTQSPSSLSASVGDRVTITCKASDHINNWLAWYQQKPGKVPKLLISGATSLETGVPSRFSGSGSGTDYTLTISSLQPEDVATYYCQQYGSTPYTFGGGTKLEIKR | –
12 | – | 0.75 | 0.536 | PiH1006 (antibody, human IgG1, kappa, V domains shown, humanized from 51C10H4; IgG1; also called 51-VH2 + VL4) VH: QVQLVQSGAEVKKPGASVKVSCKASGYTFTDYNMHWVRQAPGQGLEWIGYVNPNNGATSYNQKFKGRVTMTVDTSTSTVYMELSSLRSEDTAVYNCARWDGYVYYYGLDYWGQGTLVTVSS VL: DIQMTQSPSSLSASVGGRVTITCKASDHINNWLAWYQQKPGKVPRLLISGATSLETGVPSRFSGSGSGTDYTLTISSLQPEDVATYYCQQYWSTPYTFGGGTKLEIKR | EC50 (human CLDN6 [5]): 1.5 µg/mL
13 | binds | – | – | PiH1004-VH-VL-Mutation2 (antibody, human IgG1, kappa, V domains shown, improved antibody from PiH1004) VH: QVQLVQSGAEVKKPGASVKVSCKASGYTFTDYNMHWVRQAPGQSLEWIGYVNPNNGATSYNQKFKGRATMTVDKSTSTVYMELSSLRSEDTAVYNCARWDGYVYYYGLDYWGQGTLVTVSS VL: DIQMTQSPSSLSASVGDRVTITCKASDHVNNWLAWYQQKPGKVPKLLISGATSLETGVPSRFSGSGSGTDYTLTISSLQPEDVATYYCQQYWSTPYTFGGGTKLEIKR | –
14 | binds | – | – | PiH1004-VH-VL-Mutation7 (antibody, human IgG1, kappa, V domains shown, improved antibody from PiH1004) VH: QVQLVQSGAEVKKPGASVKVSCKASGYTFTDYNMHWVRQAPGQSLEWIGYVNPNNGATSYNQKFKGRATMTVDKSTSTVYMELSSLRSEDTAVYNCARWDGYVYYYGLDYWGQGTLVTVSS VL: DIQMTQSPSSLSASVGDRVTITCKASDHINNWLAWYQQKPGKVPKLLISGATSLETGVPSRFSGSGSGTDYTLTISSLQPEDVATYYCQQYWHTPYTFGGGTKLEIKR | –
15 | – | 0.697 | 0.374 | PiH1007 (antibody, human IgG1, kappa, V domains shown, humanized from 51C10H4; IgG1; also called 51-VH3 + VL4) VH: QVQLVQSGAEVKKPGASVKVSCKASGYTFTDYNMHWVRQAPGQGLEWIGYVNPNNGATSYNQKFKGRATMTVDTSTSTVYMELSSLRSEDTAVYNCARWDGYVYYYGLDYWGQGTLVTVSS VL: DIQMTQSPSSLSASVGGRVTITCKASDHINNWLAWYQQKPGKVPRLLISGATSLETGVPSRFSGSGSGTDYTLTISSLQPEDVATYYCQQYWSTPYTFGGGTKLEIKR | EC50 (human CLDN6 [5]): 2.48 µg/mL
16 | binds | – | – | PiH1004-VH-VL-Mutation4 (antibody, human IgG1, kappa, V domains shown, improved antibody from PiH1004) VH: QVQLVQSGAEVKKPGASVKVSCKASGYTFTDYNMHWVRQAPGQSLEWIGYVNPNNGATSYNQKFKGRATMTVDKSTSTVYMELSSLRSEDTAVYNCARWDGYVYYYGLDYWGQGTLVTVSS VL: DIQMTQSPSSLSASVGDRVTITCKASDHINNWLAWYQQKPGKVPKLLISGGTSLETGVPSRFSGSGSGTDYTLTISSLQPEDVATYYCQQYWSTPYTFGGGTKLEIKR | –
17 | – | 0.754 | 0.635 | PiH1002 (antibody, human IgG1, kappa, V domains shown, humanized from 51C10H4; IgG1; also called 51-VH2 + VL3) VH: QVQLVQSGAEVKKPGASVKVSCKASGYTFTDYNMHWVRQAPGQGLEWIGYVNPNNGATSYNQKFKGRVTMTVDTSTSTVYMELSSLRSEDTAVYNCARWDGYVYYYGLDYWGQGTLVTVSS VL: DIQMTQSPSSLSASVGDRVTITCKASDHINNWLAWYQQKPGKVPKLLISGATSLETGVPSRFSGSGSGTDYTLTISSLQPEDVATYYCQQYWSTPYTFGGGTKLEIKR | –
18 | – | 0.631 | 0.488 | PiH1001 (antibody, human IgG1, kappa, V domains shown, humanized from 51C10H4; IgG1; also called 51-VH1 + VL3) VH: QVQLVQSGAEVKKPGASVKVSCKASGYTFTDYNMHWVRQAPGQGLEWIGYVNPNNGATSYNQKFKGRATMTRDTSTSTVYMELSSLRSEDTAVYYCARWDGYVYYYGLDYWGQGTLVTVSS VL: DIQMTQSPSSLSASVGDRVTITCKASDHINNWLAWYQQKPGKVPKLLISGATSLETGVPSRFSGSGSGTDYTLTISSLQPEDVATYYCQQYWSTPYTFGGGTKLEIKR | EC50 (human CLDN6 [5]): 1.76 µg/mL

From patent publication US20260139049A1 (PEDIATRIC IMMUNITY AND HEALTHCARE GUANGZHOU BIOTECHNOLOGY, published 2026)
